Measured values as given in patent US20240150402.

B1: Human tPA (protein)
chain: SYQVICRDEKTQMIYQQHQSWLRPVLRSNRVEYCWCNSGRAQCHSVPVKSCSEPRCFNGGTCQQALYFSDFVCQCPEGFAGKCCEIDTRATCYEDQGISYRGTWSTAESGAECTNWNSSALAQKPYSGRRPDAIRLGLGNHNYCRNPDRDSKPWCYVFKAGKYSSEFCSTPACSEGNSDCYFGNGSAYRGTHSLTESGASCLPWNSMILIGKVYTAQNPSAQALGLGKHNYCRNPDGDAKPWCHVLKNRRLTWEYCDVPSCSTCGLRQYSQPQFRIKGGLFADIASHPWQAAIFAKHRRSPGERFLCGGILISSCWILSAAHCFQERFPPHHLTVILGRTYRVVPGEEEQKFEVEKYIVHKEFDDDTYDNDIALLQLKSDSSRCAQESSVVRTVCLPPADLQLPDWTECELSGYGKHEALSPFYSERLKEAHVRLYPSSRCTSQHLLNRTVTDNMLCAGDTRSGGPQANLHDACQGDSGGPLVCLNDGRMTLVGIISWGLGCGQKDVPGVYTKVTNYLDWIRDNMRP
B2: Human plasmin (protein)
chain: KVYLSECKTGNGKNYRGTMSKTKNGITCQKWSSTSPHRPRFSPATHPSEGLEENYCRNPDNDPQGPWCYTTDPEKRYDYCDILECEEECMHCSGENYDGKISKTMSGLECQAWDSQSPHAHGYIPSKFPNKNLKKNYCRNPDRELRPWCFTTDPNKRWELCDIPRCTTPPPSSGPTYQCLKGTGENYRGNVAVTVSGHTCQHWSAQTPHTHNRTPENFPCKNLDENYCRNPDGKRAPWCHTTNSQVRWEYCKIPSCDSSPVSTEQLAPTAPPELTPVVQDCYHGDGQSYRGTSSTTTTGKKCQSWSSMTPHRHQKTPENYPNAGLTMNYCRNPDADKGPWCFTTDPSVRWEYCNLKKCSGTEASVVAPPPVVLLPDVETPSEEDCMFGNGKGYRGKRATTVTGTPCQDWAAQEPHRHSIFTPETNPRAGLEKNYCRNPDGDVGGPWCYTTNPRKLYDYCDVPQCAAPSFDCGKPQVEPKKCPGRVVGGCVAHPHSWPWQVSLRTRFGMHFCGGTLISPEWVLTAAHCLEKSPRPSSYKVILGAHQEVNLEPHVQEIEVSRLFLEPTRKDIALLKLSSPAVITDKVIPACLPSPNYVVADRTECFITGWGETQGTFGAGLLKEAQLPVIENKVCNRYEFLNGRVQSTELCAGHLAGGTDSCQGDSGGPLVCFEKDKYILQGVTSWGLGCARPNKPGVYVRVSRFVTWIEGVMRNN
B3: Human matriptase-1 (protein)
chain: GSDEKDCDCGLRSFTRQARVVGGTDADEGEWPWQVSLHALGQGHICGASLISPNWLVSAAHCYIDDRGFRYSDPTQWTAFLGLHDQSQRSAPGVQERRLKRIISHPFFNDFTFDYDIALLELEKPAEYSSMVRPICLPDASHVFPAGKAIWVTGWGHTQYGGTGALILQKGEIRVINQTTCENLLPQQITPRMMCVGFLSGGVDSCQGDSGGPLSSVEADGRIFQAGVVSWGDGCAQRNKPGVYTRLPLFRDWIKENTGV

Key:
[1] = biological target: Final pools of substrates selected with recombinant human matriptase-1
[2] = biological target: activatable antibodies comprising substrates selected for cleavage by matriptase (5 substrates tested), having the 3954 mask and C225v5 variant of cetuximab
[3] = biological target: activatable antibodies comprising substrates selected for cleavage by uPA and matriptase (7 substrates tested), having the 3954 mask and C225v5 variant of cetuximab

Row | Protein | cleavage (flow cytometry of displayed substrate pools) [1] | cleavage (flow cytometry of displayed substrate pool) (pool SMP17) | kcat/KM [2] | kcat/KM [3]
1 | B1 | but not by tPA or plasmin | resistance to tPA | – | –
2 | B2 | but not by tPA or plasmin | – | – | –
3 | B3 | The pools were cleaved by matriptase-1 | – | kcat/KM values ranging from about 6,500 to 100,000 M^-1s^-1 for matriptase (5 substrates tested) | from about 3,000 to 100,000 M^-1s^-1 for matriptase (7 substrates tested)
